# According to patent publication US20150239980A1 (NEOTOPE BOSCIENCES, published 2015):
# T1: human MCAM domain 1 (amino acids 19-129), Fc-tagged (human, UniProt P43121 19-129)
# T1 construct: also called MCAM Fc domain 1
# T1 sequence: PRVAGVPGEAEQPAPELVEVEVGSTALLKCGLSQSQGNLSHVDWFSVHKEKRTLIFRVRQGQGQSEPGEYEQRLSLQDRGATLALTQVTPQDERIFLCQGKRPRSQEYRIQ
# T2: human MCAM domain 2 (amino acids 139-242), Fc-tagged (human, UniProt P43121 139-242)
# T2 sequence: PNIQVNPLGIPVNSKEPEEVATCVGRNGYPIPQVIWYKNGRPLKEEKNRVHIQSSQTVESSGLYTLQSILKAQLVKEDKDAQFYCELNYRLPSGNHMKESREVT
# T3: Recombinant human Fc-tagged MCAM IgG1-2A (human MCAM domains 1 and 2, amino acids 19-242) (human, UniProt P43121 19-242)
# T3 construct: also called human MCAM IgG1-2A; MCAM Fc domains 1 and 2; not shown: human Fc tag
# T3 sequence: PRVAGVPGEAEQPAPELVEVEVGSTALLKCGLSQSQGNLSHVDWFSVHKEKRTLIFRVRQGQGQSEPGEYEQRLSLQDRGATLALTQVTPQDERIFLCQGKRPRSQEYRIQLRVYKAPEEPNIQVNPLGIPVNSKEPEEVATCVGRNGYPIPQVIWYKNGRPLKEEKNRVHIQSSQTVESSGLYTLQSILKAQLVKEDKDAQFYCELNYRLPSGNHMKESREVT
# T4: human MCAM domain 3 (amino acids 244-321), Fc-tagged (human, UniProt P43121 244-321)
# T4 construct: also called domain 3 of the human MCAM protein
# T4 sequence: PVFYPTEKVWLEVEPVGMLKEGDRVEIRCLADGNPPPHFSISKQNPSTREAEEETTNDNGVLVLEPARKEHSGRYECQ
# T5: recombinant hMCAM-His (human, UniProt P43121 24-559)
# T5 construct: not shown: His tag
# T5 chain: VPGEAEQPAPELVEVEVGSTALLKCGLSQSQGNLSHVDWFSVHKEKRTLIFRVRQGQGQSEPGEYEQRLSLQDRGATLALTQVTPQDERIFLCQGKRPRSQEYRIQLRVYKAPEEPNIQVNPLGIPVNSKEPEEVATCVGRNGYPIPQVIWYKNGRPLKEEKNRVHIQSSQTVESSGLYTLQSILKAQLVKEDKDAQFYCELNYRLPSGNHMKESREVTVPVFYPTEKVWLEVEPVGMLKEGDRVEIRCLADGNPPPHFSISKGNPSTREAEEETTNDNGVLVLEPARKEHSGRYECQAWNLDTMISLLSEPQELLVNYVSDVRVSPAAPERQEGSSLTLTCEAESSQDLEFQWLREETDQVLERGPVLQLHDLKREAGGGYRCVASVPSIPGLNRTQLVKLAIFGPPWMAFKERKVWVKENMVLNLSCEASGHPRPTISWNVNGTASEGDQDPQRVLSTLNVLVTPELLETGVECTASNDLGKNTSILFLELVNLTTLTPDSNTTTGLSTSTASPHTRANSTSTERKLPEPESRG
# T6: human MCAM (melanoma cell adhesion molecule) expressed on transfected CHO cells (human, UniProt P43121 24-646)
# T6 construct: also called hMCAM; CD146
# T6 chain: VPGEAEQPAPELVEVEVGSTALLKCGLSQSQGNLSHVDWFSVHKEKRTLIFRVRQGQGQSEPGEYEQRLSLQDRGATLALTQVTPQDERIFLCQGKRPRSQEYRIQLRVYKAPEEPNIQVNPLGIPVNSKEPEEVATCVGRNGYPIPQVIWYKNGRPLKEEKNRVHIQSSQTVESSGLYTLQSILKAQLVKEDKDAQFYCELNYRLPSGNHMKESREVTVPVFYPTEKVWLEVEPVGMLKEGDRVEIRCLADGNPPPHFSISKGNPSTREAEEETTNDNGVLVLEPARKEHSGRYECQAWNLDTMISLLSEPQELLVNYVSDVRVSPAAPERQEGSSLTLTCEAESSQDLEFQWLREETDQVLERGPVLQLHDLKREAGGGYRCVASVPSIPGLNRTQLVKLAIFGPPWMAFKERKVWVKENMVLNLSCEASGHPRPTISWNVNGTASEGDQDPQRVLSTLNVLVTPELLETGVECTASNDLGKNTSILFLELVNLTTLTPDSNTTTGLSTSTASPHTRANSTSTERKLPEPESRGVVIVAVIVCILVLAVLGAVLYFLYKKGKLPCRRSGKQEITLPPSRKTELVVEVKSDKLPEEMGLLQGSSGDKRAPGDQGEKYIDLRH
# B1: mouse anti-human MCAM monoclonal antibody clone 1749.1.3 (antibody, V domains shown)
# VH: DVKLVESGGDLVKPGGSLKLSCAASGFTFSSYIMSWVRQTPEKRLEWVATISSGGSSTYYPDSVKGRFTISRDNAKNTLYLQMSSLKSEDTAMYYCTRDDDYDVKVFAYWGQGTLVTVSA
# VL: DIVMSQSPSSLAVSAGEKVTMNCKSSRSLLNSRIRKNYLAWYQQKPGQSPKLLIYWASTRESGVPDRFTGSGSGTDFTLTISSVQAEDLAVYYCKQSYNLLTFGAGTKLELK
# notes: mouse hybridoma antibody; also called rodent 1749; murine 1749.1.3 anti-MCAM antibody
# What was measured:
# [1] = biological target: T1, human MCAM domain 1 (amino acids …); test: ForteBio domain mapping as in Example 8
# [2] = biological target: T2, human MCAM domain 2 (amino acids …); test: ForteBio domain mapping as in Example 8
# [3] = biological target: T3, Recombinant human Fc-tagged MCAM …; test: ForteBio domain mapping as in Example 8
# [4] = biological target: T4, human MCAM domain 3 (amino acids …); test: ForteBio domain mapping as in Example 8
# recombinant hMCAM-His [5] = biological target: T5, recombinant hMCAM-His; test: ForteBio Octet Red, hMCAM-His analyte; Expt. #1; vs rodent 1749
# Description: (§1) The affinities were measured using the ForteBio Octet Red. Anti-human Fc sensors were used to capture the humanized antibodies, and several concentrations of hMCAMHis analyte were used to determine the affinity using a 1:1 fitting model.
# recombinant hMCAM-His [6] = biological target: T5, recombinant hMCAM-His; test: ForteBio Octet Red, hMCAM-His analyte; Forte column 1; vs rodent 1749
# Description: as §1
# [7] = biological target: T6, human MCAM (melanoma cell adhesion …); test: laminin/FACS on hMCAM CHO cells, competitor laminin 411; Expt#2; vs rodent 1749
# Description: Following incubation for 30-45 minutes, the cells were washed and anti-laminin conjugated to AF650 (NovusBio) was added to detect the bound laminin. The cells were run on a flow cytometer to measure the laminin binding signal.
# recombinant hMCAM-His [8] = biological target: T5, recombinant hMCAM-His; test: competitive ELISA on hMCAM-His, competitor biotinylated rodent or chimeric 1749; Expt. #1; vs rodent 1749
# Description: ELISA plates were coated with recombinant hMCAM-His, and blocked with casein buffer to prevent non-specific binding. Biotinylated rodent or chimeric antibody was added at a subsaturating concentration, in the presence or absence of 3× increasing concentrations of unlabeled competitor (humanized antibody, rodent, or chimeric). After washing to remove unbound antibody, streptavidin HRP was added to allow detection of the biotinylated antibody. The ELISA was developed with TMB substrate and the OD450 was measured. The IC50 of the unlabeled competitor was determined using the GraphPad Prism5 software.
binder,measurement,setting,value
B1,binding result,[1],no binding
same,binding result,[2],no binding
same,binding result,[3],no binding
same,binding result,[4],binds
same,fold over rodent (Forte affinity),recombinant hMCAM-His [5],1 fold
same,fold over rodent (Forte affinity),recombinant hMCAM-His [6],1 fold
same,"fold over rodent (blocking, laminin/FACS)",[7],1 fold
same,fold over rodent (competitive ELISA),recombinant hMCAM-His [8],1 fold
